Reference: US20040009175A1

Assays:
[1] = molecular target: GST-MEK4 [GST: P08515]; assay: cell-based or functional assay
[2] = molecular target: MEK1
[3] = molecular target: GST-MEK6 [GST: P08515]
[4] = molecular target: Recombinant GST-MEK5 [GST: P08515]
[5] = molecular target: (His)6MEK3
[6] = molecular target: MEK2
[7] = molecular target: myc-tagged MEK3; assay: cell-based or functional assay

B1: (His)6TAO1(1-416) (protein)
chain: MRGSHHHHHHMPSTNRAGSLKDPEIAELFFKEDPEKLFTDLREIGHGSFGAVYFARDVRTNEVVAIKKMSYSGKQSTEKWQDIIKEVKFLQRIKHPNSIEYKGCYLREHTAWLVMEYCLGSASDLLEVHKKPLQEVEIAAITHGALQGLAYLHSHTMIHRDIKAGNILLTEPGQVKLADFGSASMASPANSFVGTPYWMAPEVILAMDEGQYDGKVDVWSLGITCIELAERKPPLFNMNAMSALYHIAQNESPTLQSNEWSDYFRNFVDSCLQKIPQDRPTSEELLKHMFVLRERPETVLIDLIQRTKDAVRELDNLQYRKMKKLLFQEAHNGPAVEAQEEEEEQDHGGGRTGTVNSVGSNQSIPSMSISASSQSSSVNSLPDASDDKSELDMMEGDHTVMSNSSVIHLKPEEENYQEEGDPRTRA
- activation of GST-MEK4 toward (His)6p38 (in vitro linked kinase assay) [1]: 5 fold
- activation of GST-MEK4 towards GST-SAPKβ (in vitro linked kinase assay) [1]: 150 fold
- activity of MEK1 towards the substrate (His)6ERK2 (in vitro linked kinase assay) [2]: completely unable to increase the activity of MEK1 or MEK2 towards the substrate (His)6ERK2
- increase of the ability of GST-MEK6 to phosphorylate (His)6p38 (in vitro linked kinase assay) [3]: by 5-fold
- phosphorylation of GST-MEK5 (in vitro kinase assay) [4]: Recombinant GST-MEK5 was not phosphorylated by (His)6TAO1(1-416)
- enhancement of the ability of MEK3 to phosphorylate p38 (in vitro linked kinase assay) [5]: approximately 100-fold
- activity of MEK2 towards the substrate (His)6ERK2 (in vitro linked kinase assay) [6]: completely unable to increase the activity of MEK1 or MEK2 towards the substrate (His)6ERK2

B2: full-length HA-tagged TAO1 (enzyme, not shown: small tags and cut ends)
chain: MPSTNRAGSLKDPEIAELFFKEDPEKLFTDLREIGHGSFGAVYFARDVRTNEVVAIKKMSYSGKQSTEKWQDIIKEVKFLQRIKHPNSIEYKGCYLREHTAWLVMEYCLGSASDLLEVHKKPLQEVEIAAITHGALQGLAYLHSHTMIHRDIKAGNILLTEPGQVKLADFGSASMASPANSFVGTPYWMAPEVILAMDEGQYDGKVDVWSLGITCIELAERKPPLFNMNAMSALYHIAQNESPTLQSNEWSDYFRNFVDSCLQKIPQDRPTSEELLKHMFVLRERPETVLIDLIQRTKDAVRELDNLQYRKMKKLLFQEAHNGPAVEAQEEEEEQDHGGGRTGTVNSVGSNQSIPSMSISASSQSSSVNSLPDASDDKSELDMMEGDHTVMSNSSVIHLKPEEENYQEEGDPRTRASAPQSPPQVSRHKSHYRNREHFATIRTASLVTRQMQEHEQDSELREQMSGYKRMRRQHQKQLMTLENKLKAEMDEHRLRLDKDLETQRNNFAAEMEKLIKKHQASMEKEAKVMANEEKKFQQHIQAQQKKELNSFLESQKREYKLRKEQLKEELNENQSTPKKEKQEWLSKQKENIQHFQAEEEANLLRRQRQYLELECRRFKRRMLLGRHNLEQDLVREELNKRQTQKDLEHAMLLRQHESMQELEFRHLNTIQKMRCELIRLQHQTELTNQLEYNKRRERELRRKHVMEVRQQPKSLKSKELQIKKQFQDTCKIQTRQYKALRNHLLETTPKSEHKAVLKRLKEEQTRKLAILAEQYDHSINEMLSTQALRLDEAQEAECQVLKMQLQQELELLNAYQSKIKMQAEAQHDRELRELEQRVSLRRALLEQKIEEEMLALQNERTERIRSLLERQAREIEAFDSESMRLGFSNMVLSNLSPEAFSHSYPGASSWSHNPTGGSGPHWGHPMGGTPQAWGHPMQGGPQPWGHPSGPMQGVPRGSSIGVRNSPQALRRTALGGRTEQGMSRSTSVTSQISNGSHMSYT
- MEK3 activity in anti-myc immunoprecipitates from co-transfected 293 cells [7]: 3 to 4 fold
- activity toward p38 of myc-tagged MEK3 immunoprecipitated from co-transfected 293 cells [7]: 3 fold
